US20230272390A1, “COMPOSITIONS AND METHODS FOR HEMOGLOBIN PRODUCTION” (THE CHILDREN'S HOSPITAL OF PHILADELPHIA, priority 2020, published 2023)

Target: oligo containing the consensus motif
Experiment: Fluorescence polarization DNA binding assay, consensus oligo
Parameters: species or system human
Conditions: purified GST fusion protein, 17-bp oligo containing the consensus motif, read-out: dissociation constant (KD)
Method: The fragment of Human ZNF410 (NP_001229855.1) comprising of five zinc finger domains ZF1-5 (residues 217-366) was cloned into pGEX-6P-1 vector with a GST fusion tag (pXC2180). The plasmid was transformed into Escherichia coli strain BL21-Codon-plus(DE3)-RIL (Stratagene). Bacteria was grown in LB broth in a shaker at 37° C. until reaching the log phase (A600 nm between 0.4 and 0.5), the shaker temperature was then set to 16° C. and 25 μM ZnCl2 was added to the cell culture. When the shaker temperature reached 16° C. and A600 nm reached ˜0.8, the protein expression was induced by the addition of 0.2 mM isopropyl-3-D-thiogalactopyranoside with subsequent growth for 20 hours at 16° C. […]
Fluorescence polarization (FP) method was used to measure the binding affinity using a Synergy™ 4 Microplate Reader (BioTek). […]
To further gain insight into the molecular basis of how the ZNF410 tandem ZF domain recognizes its targeting DNA sequence, crystallization of the ZNF410-DNA complex was performed. The binding affinity of the ZNF410 ZF domain (ZF1-5) with the consensus motif was quantified by fluorescence polarization using purified GST fusion protein (Patel, et al. (2016) Methods Enzymol., 573:387-401). […]

B1: ZF1-5: fragment of human ZNF410 comprising five zinc finger domains ZF1-5 (residues 217-366); dominant-negative when overexpressed (protein)
chain: KKLKCTVEGCDRTFVWPAHFKYHLKTHRNDRSFICPAEGCGKSFYVLQRLKVHMRTHNGEKPFMCHESGCGKQFTTAGNLKNHRRIHTGEKPFLCEAQGCGRSFAEYSSLRKHLVVHSGEKPHQCQVCGKTFSQSGSRNVHMRKHHLQLG
modifications: left off: small tags and cut ends
notes: fragment of human ZNF410 comprising five zinc finger domains ZF1-5 (residues 217-366); dominant-negative when overexpressed
  Kd: 0.022 µM
